Experimental data as given in a protein production outcome set (Wang et al. 2014).

Experiment: label from the status in PepcDB records

MKIELLLLFLVFAWDGYFFLRYIIGLTRKYRTIQWNPTVSVIIPAYNEEENIESAIKAALSQDYPVSEVIVVDDGSEDKTYERALRMAQEDTRVKVIRIPHGGKARALNEGIKVARGEIIVTTDADSYMAKDAVRRLVERFYSPDIVGVGGQIRVVVESFLTLVQDIEHLRIAMYRRAKELEDLSLAPGPLSAFRREALDQIGGIAESIVEDYATTKLLKKVGKVVYAPKAKLFTRMPITLKELWRQRKRWFIGDLNHLEPKDYAILMLSDFIAFLDVILPLLFIVRGEFLLLGAFFGFEILTMLPPIIFEGGSIIEALSFPFILIFLAMFYLGIHIYGYLTKLNAKIFK
protein production: failed

MKIESAQIIELPKILDKRGNLSIIEEFKNIPFKIERTYWIYDVPGGESRGGHAYRENEEFIVALSGSFDVVLDDGNNKKIFSLNRSYYGLYVPKGLWREMNNFSTNSLALILSSTVYEEKDYIRDYNEFLKMKRKLEHHHHHH
protein production: failed

MKIESLDLPDEIKRFYENSGILELYPPQAEAVEKGLLEGKNLLAAIPTASGKTLLAELAMLKSVLNGGKALYIVPLRALASEKFRRFQEFSVLGMRVGISTGDYDRRDEGLGINDIIVATSEKTDSLLRNETAWMQEISVVVADEVHLIDSPDRGPTLEITLSKLRRMNPSCQVLALSATVGNADELAAWLDAELVLSEWRPTDLMEGVFYNGIFYCKDKEKPVGQPTKDEAVNLVLDTIKEGGQCLVFESSRKNCMGFAKKAVSAVKKTLSNEDRETLAGIADEIIENSETDVSSVLATCVRSGTAFHHAGLTTPLRELVENGFREGRIKIISSTPTLAAGLNLPARRVIIRSYRRYSSDSGMQPIPVLEYKQMAGRAGRPRLDPYGEAVLLAKSYEEFVFLFEKYIEAGAEDIWSKLGTENALRTHILSTISNGFARTREELMDFLEATFFAFQYSNFGLSAVVDECLDFLRREGMLEKDPDALVSTVFGKLVSRLYIDPLSAALIAKGLREAGTLTELTLLHLICSTPDMRLMYMRSQDYQEVNDYVMAHAGEFSKVPNPFNIAEYEWFLGEVKTSLLLMDWIHEKPENEICLKFGIGEGDIHATADIAEWIMHVTAQLAGLLDLKGAKEASELEKRIRYGAAPELMDLLDIRSVGRVRARKLYEAGFKSTAELAAASPEHIAVLVGPKITERIFKQIGRREAVSEFSDIEPLEKGSSDGQRTISDY
protein production: failed

MKIFIVGSTGRVGKSLLKSLSTTDYQIYAGARKVEQVPQYNNVKAVHFDVDWTPEEMAKQLHGIDAIINVSGSGGKSLLKVDLYGAVKLMQAAEKAEVKRFILLSTIFSLQPEKWIGAGFDALKDYYIAKHFADLYLTKETNLDYTIIQPGALTEEEATGLIDINDEVSASNTIGDVADTIKELVMTDHSIGKVISMHNGKTAIKEALESLLEHHHHHH
protein production: not failed

MKIGIIGAGFVARAIAKLALQNGHQVMLSNSRDPQSLFSLRPMIGCDIGTATQAALFGDIIVIAVPFTAIDKLPEQALQGKSVIDAVNYYTERDGKVAALDTRSTTTSELLAGYLPGAKITKAFNAITMTQLERDGLPAGSAHRRALPLAGDHEQEKTIVAELYDAFGFDVVDAGKLSEGWRFERNMPSYCVRMTKAELTTALALSSRLEHHHHHH
protein production: not failed

MKIGIIGVGKMASAIIKGLKQTPHELIISGSSLERSKEIAEQLALPYAMSHQDLIDQVDLVILGIKPQLFETVLKPLHFKQPIISMAAGISLQRLATFVGQDLPLLRIMPNMNAQILQSSTALTGNALVSQELQARVRDLTDSFGSTFDISEKDFDTFTALAGSSPAYIYLFIEALAKAGVKNGIPKAKALEIVTQTVLASASNLKTSSQSPHDFIDAICSPGGTTIAGLMELERLGLTATVSSAIDKTIDKAKSL
protein production: not failed

MKIGVLGLQGAVREHVRAIEACGAEAVIVKKSEQLEGLDGLVLPGGESTTMRRLIDRYGLMEPLKQFAAAGKPMFGTCAGLILLAKRIVGYDEPHLGLMDITVERNSFGRQRESFEAELSIKGVGDGFVGVFIRAPHIVEAGDGVDVLATYNDRIVAARQGQFLGCSFHPELTDDHRLMQYFLNMVKEAKMASSLK
protein production: not failed

MKIIELPIEFEFNGQKQCIYPSLIILHNELTLVDTGYPSFLPLIENAILKHGYEMKNLKNIIITHYDDDHIGAVYDFKVKYPNINVIASEIESNYINGDIKSERLVQAEEMLERMPNEEKEFGKWFIQQLKNIKHISVDEKVHDGQMILNNECQVVATPGHTSGHISLYFPNLDCVITGDAAVQENRELVIANPNFCLDIEKAKQSLNRIKSFKAAQYYCYHGGKLTV
protein production: failed

MKIIRTRQRPFMVIVDVVLTVLAWVGLLYLLVRGLIPLLDSHEGPRIEAGMLDALTTLQFYAWVAVLNAVLLISWARYRQRRNKSYPPRLPAPVVDDKRLSETFKLNDATFAQMRQPGTMIVHNDEEGGISHVTTQFYRILPEDQQHPPLRVEPPPRVIHLRSEGDEGKKTGED
protein production: failed

MKIKACIFDMDGTLVNSIMDIAFSMNSALSNLGYSKIELSKFNALVGRGFNKFVIDTLKLLSLEHDNPNLQEKLYKEFVKEYNKNLSFQTKPYENIKPLLETMNKLNIPIGILSNKNHEELINLVKNIFGNILFFEIRGYSKNFPPKPDPENALDMILELNAQKEEIAYIGDSDVDMLTALNAGFMPIGVSWGFRSVQELKESGAKHIIHNPLELLDLIK
protein production: failed

MKIKAVGAYSAKQPLEPMDITRREPGPNDVKIEIAYCGVCHSDLHQVRSEWAGTVYPCVPGHEIVGRVVAVGDQVEKYAPGDLVGVGCIVDSCKHCEECEDGLENYCDHMTGTYNSPTPDEPGHTLGGYSQQIVVHERYVLRIRHPQEQLAAVAPLLCAGITTYSPLRHWQAGPGKKVGVVGIGGLGHMGIKLAHAMGAHVVAFTTSEAKREAAKALGADEVVNSRNADEMAAHLKSFDFILNTVAAPHNLDDFTTLLKRDGTMTLVGAPATPHKSPEVFNLIMKRRAIAGSMIGGIPETQEMLDFCAEHGIVADIEMIRADQINEAYERMLRGDVKYRFVIDNRTLTD
protein production: not failed

MKIKTSYLIYAVIATVFAGLSMVTDIFEKGNFEAIFSNLGMIIGLSILAYILITMAKSFIDLVINELKN
protein production: failed

MKILFIKLSALGDVLASTPLFASTKAEHPDWFVGHVVARPYADATRNNAHVDAQFVVDSPLSKGLAEKIGVAVGIWRYVLRERYDIAVVLHRSFVLQLICRLALVKKVVGYEGPFSFILNHSIPFSMRGNRSNLELRLLKSAGIIRDEKKKLRFDIDFGNVDPSRLRALPDAFIAVNAGGGNADAHAANKLWPAEHYGALIKQLPLPAVMLGHGAADERIRDRVAATGATFVDLIGKTNLDETAVVLRRSSLYVGNDSALLYLAASLGVTTIGIYGPTDPAAFSPLGANNLWLSGKTSCAPCYSSFDGIGGRMYTCADNICMKAVTVESVSERIHAALHQDQNLQVAGPDVVGSGQGGAASEAGDRARAHARAGHQAVGDGGFAVPVSRRPPVGARVSGRDD
protein production: failed

MKILKKIFQVIVKIINHCVPVDSRSLYFIPHPNCRTDKYDIINYSSDNVLVLLNYLLKKDSAEYYKIYVEIYDSSRISEYQEYIYGINPNIRCTFLCACVGRFFFNKVSFKDMLYAFFCFCRASKCFTATFYYDFSFKKRSQQIICLGYYTPFKDDYHMGDHSYDKFRNTTCNSFDYSIATSCLSARIISIDCGISYDKFKVLGFPRNDLLISKNNCNVIKREISKFAGYDVTKYIVYTPTFRDYETVTEGNLRSILGYVDCDLLKLSKILLKFNAALILKLHPLQNKTVLKKDLPKGILVFEQTYKYGLYDLLSFSDGMITDYTSTYFDFLLVNKPVIFNFYDIEEYRRVRGFSFEPIEFFCAGDIVYNYNELIDAVMGLLAGKDIHAEHRRHISLLMNQFQDDNSTKRICDIFLNEILEHHHHHH
protein production: failed

MKILVDENMPYARELFSRLGEVKAVPGRPIPVEELNHADALMVRSVTKVNESLLSGTPINFVGTATAGTDHVDEAWLKQAGIGFSAAPGCNAIAVVEYVFSALLMLAERDGFSLRDRTIGIVGVGNVGSRLQTRLEALGIRTLLCDPPRAARGDEGDFRTLDELVQEADVLTFHTPLYKDGPYKTLHLADETLIRRLKPGAILINACRGPVVDNAALLARLNAGQPLSVVLDVWEGEPDLNVALLEAVDIGTSHIAGYTLEGKARGTTQVFEAYSAFIGREQRVALETLLPAPEFGRITLHGPLDQPTLKRLAHLVYDVRRDDAPLRKVAGIPGEFDKLRKNYLERREWSSLYVMCDDETAAALLCKLGFNAVHHPAH
protein production: not failed

MKILVTGGTGLIGRHFISAFNHKYQFTVLTRNTQKAQLYLPKNIEFIEQLPEQNYFDVIINLAGEPIIDKRWSRAQKENICQSRWNITEKIVEMIARATDKPSCLISGSAIGYYGETGAVSTHEDAKVTHSDFAHTLCQKWEELALKAKEHCRVVLLRTGIVLASDGGALEKMRLPFSLGLGGKLGNGQQYMSWIHIDDMIHAIHFSVQIKCIEGAINCTSPKAITNEVFTKALGKEVNRPTWFSVPAFVLNILMGQGAELLLTSQNIYPQKLLSHGFHFNHSDIEHALADLMTES
protein production: failed

MKILYPTDFSEVSQKALTECVPSIILGIGEGSELILLHVVDITASEIGALELAEVDKEELNNLASQLREKGIKVKPIVRIGIPSLEISEVAKEENVDLIIIPSKGENILRQMLLGSTASNLARITHKPVLLLRYEVENGEIKSLQDCSRIFEKPLVALDLSKCSEKIIETIKDLPGVREAVLFHVVDYGKVEELENNIKNAKEKLSKYGKLLPWKTKIEVQAGIASKGIIGAAIDNNVTLVVIGKKGRSVLKDLLLGSTAERVIRDCKLPTLLIPCE
protein production: failed

MKINQLWQEPKQRSKRYYLLDNIFSAITHGIGFGLAIAGLVVLIVKAAHTGSPMRIVTFTIYGACLVLLYLFSTLYHSLVFTRAKNVFQIFDHSSIFLLIAGSYTPYSLVAIGGVWGWTLFGLIWGLTIFGIIYYVFNRGKHVIFDTILYVAMGWLVILSGPYLYVRLSSTGFWLLVGGGIAYTIGAILFSMRSVPFIHTIWHLFIILGSILMYFSVLLYV
protein production: failed

MKIPKIYVEGELNDGDRVAIEKDGNAIIFLEKDEEYSGNGKLLYQVIYDDLAKYMSLDTLKKDVLIQYPDKHTLTYLKAGTKLISVPAEGYKVYPIMDFGFRVLKGYRLATLESKKGDLRYVNSPVSGTVIFMNEIPSERANYVFYMLEE
protein production: not failed

MKIRDLLKARRGPLFSFEFFPPKDPEGEEALFRTLEELKAFRPAFVSITYGAMGSTRERSVAWAQRIQSLGLNPLAHLTVAGQSRKEVAEVLHRFVESGVENLLALRGDPPRGERVFRPHPEGFRYAAELVALIRERYGDRVSVGGAAYPEGHPESESLEADLRHFKAKVEAGLDFAITQLFFNNAHYFGFLERARRAGIGIPILPGIMPVTSYRQLRRFTEVCGASIPGPLLAKLERHQDDPKAVLEIGVEHAVRQVAELLEAGVEGVHFYTLNKSPATRMVLERLGLRPASGQP
protein production: not failed

MKIRFISLASGSSGNCYYLGTEKYGILIDAGIGIRTIKKSLKDINVTMDSIRAVFITHDHADHIKAVGHLGEKLNIPVYTTARVHAGINKSYCMTEKLHGSVRYLEKEEPMLLEDFRIESFEVPHDGTDNVGYCIEIDGKVFSFLTDLGEITPTAARYICKAHYLIIEANYDEEMLRMGPYPTYLKERISSKTGHMSNIDTANFLAENIMEHLRYIWLCHLSKDNNHPELAYKTVEWKLKSKGIIVGKDVQLLALKRNTPSELYEFE
protein production: failed

MKIRILGSGTSTGVPEIGCTCAVCTSKDPRDCRLRTSALVYTDDATILLDCGPDFREQMLRVPFGKIDAVLISHEHYDHVGGLDDLRPFCRFGEVPIYAETYTAERLRSRMPYCFVEHSYPGVPNIPLREIEPNRPFLVNHTEVLPLRVMHGKLPILGYRIGKLGYITDMLTMPDESFEQLQGIEVLVMNALRIAPHNTHQSLSEALEAVKRIGAKETWLIHMSHHIGLQADVEKQLPPHVHFAFDGLELECLEHHHHHH
protein production: failed
